Test results published in article PMC3511531, “Structural Requirements for the Procoagulant Activity of Nucleic Acids”.

Biological target: high molecular weight kininogen (single-chain) (UniProt P01042 19-644)
Test: microtiter plate binding assay (streptavidin-peroxidase); Proteins coated at 10 ug/mL in 100 mM sodium carbonate pH 9.5 (4 C, 20 h); blocked with TBS + 3% BSA; biotinylated DNA 0.31-50 ug/mL, 22 C, 2 h; TBS washes; binding buffer composition and pH not stated
Conditions: protein: commercial; hairpin, blunt-ended

Chain of high molecular weight kininogen (single-chain) (P01042 19-644): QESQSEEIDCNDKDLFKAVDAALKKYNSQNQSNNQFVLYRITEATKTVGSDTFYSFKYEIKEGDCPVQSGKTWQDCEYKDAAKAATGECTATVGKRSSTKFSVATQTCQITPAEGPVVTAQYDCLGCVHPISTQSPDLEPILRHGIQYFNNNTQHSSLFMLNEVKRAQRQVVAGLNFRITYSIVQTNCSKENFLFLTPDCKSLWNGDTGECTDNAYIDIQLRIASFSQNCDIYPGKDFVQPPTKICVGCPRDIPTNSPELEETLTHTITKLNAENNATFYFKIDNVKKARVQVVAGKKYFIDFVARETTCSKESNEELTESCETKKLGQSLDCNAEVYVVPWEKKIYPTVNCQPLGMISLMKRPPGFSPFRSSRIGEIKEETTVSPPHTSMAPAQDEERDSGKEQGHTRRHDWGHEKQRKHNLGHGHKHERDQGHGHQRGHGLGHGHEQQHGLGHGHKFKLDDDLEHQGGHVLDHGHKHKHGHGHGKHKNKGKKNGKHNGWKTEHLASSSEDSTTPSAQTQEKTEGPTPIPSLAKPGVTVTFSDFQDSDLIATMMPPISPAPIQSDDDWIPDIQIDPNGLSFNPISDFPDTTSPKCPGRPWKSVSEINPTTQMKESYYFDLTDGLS

GGGAATGGGTATTCCCATCCC (structured_DNA) [21mer-H1 DNA]
Kd: 1820 ± 230 nM
